Assay results reported in publication PMC12342251, “HBV capsid assembly modulators differentially modulate the assembly of wild-type and drug-resistant core protein chimeric nucleocapsids and empty capsids” (PLOS Pathogens, 2025).

Target: the molecule itself
Assay: SEC

B1: WT-Cp149 dimer (HBV core protein residues 1-149) (domain or fragment)
chain: MDIDPYKEFGATVELLSFLPSDFFPSVRDLLDTASALYREALESPEHCSPHHTALRQAILCWGELMTLATWVGVNLEDPASRDLVVSYVNTNMGLKFRQLLWFHISCLTFGRETVIEYLVSFGVWIRTPPAYRPPNAPILSTLPETTVV
notes: source: E. coli NiCo21(DE3), purified
binding result: binds
